Values of other authors, collected in patent publication US10190113B2, “Methods and compositions for segregating target nucleic acid from mixed nucleic acid samples” (FLIR DETECTION, INC., priority 2011, dated 2019).

tested on: nucleic acid recognition or cleavage site; details: mutant restriction enzyme relative to wild type; cited from earlier work

Molecule	% of WT cleavage activity [%]
Eco57I D78N: Eco57I restriction enzyme with mutation D78N (protein, UniProt P25239 1-998, looked up, variant D78N) Type II restriction enzyme …: MNKKDQLQRLIDKYKSDIDYYRSARYNETQLRTDFLDQLFLILGWDITNAAGKPTNEREVLVEEGLKARAGENTKKPNYTFRLFSERKFFLEAKKPSVDISTTIEPALQVRRYGFTAKLKISVLSNFEYTAIYDCSNQVKETDSVANSRIKLYHFTELVDKFDEINNLIGRESVYTGHFDNEWSEIENKILRFSVDDLFLKQINDWRLLLANEFLQIKNELPEEKLNDLVQNYINSIVFLRVCEDRDLEEYETLYHFAQDKDFQSLVKKLKSSDKKYNSGLFSLEYIDELLSNANSCIWSIIEQLYFPQSTYSFSVFSSDILGNIYEIFLSEKVRIDELGNVKIQPKEEHIDRDVVTTPTHIVKEIIRNTVVEYCKGKSDIEILNSKFADIACGSGAFIIEAFQFIQDILIDYYIQNDKSKLQQISEHTYKLKFEVKREILCKCIYGIDKDYNATKACTFGLLLKLLEGETTETIGKDTPILPALDTNILFGNSLIDSGDKVKQEDIFSINPFDLTNYQFDVIVGNPPYMATEHMNQLTPKELDIYKRKYKSAYKQFDKYFLFIERSIQILKEYGYLGYILPSRFIKVDAGKKLRKFLSENKYLSKLISFGSHQVFKNKTTYTCLLFLNKENHDNFSFYEVKDFKKWLTREDKYLLSSTYQTSSLDSDTWVLEKKINDILKLMFSKSEQLGNIVGKSNVANGIQTSANKYYIHKEIKSENGFIYFEYDGIEYHIEKELTRPYFETNRSGDDSFYTYKDVEPNSFVVYPYKKVGERIQFIEYDELKRQYPKLFEFLQVVKVHLNDKKRSIKPDPTGPNEWYRYGRSQALENCDVDQKLIVGILSNGYKYSIDNHRTFVSSGGTAGYSIINIPNNVRYSIYYIQAILTSKYLEWFASIYGDIFRGRFVARGTKVQTRMPIPTIDFDDPKQKEIHDTISSKQQYLNKLYSQTQKSADRDKIIFERQFEQEKIQMDYLIKNLFDLGDLDSEIPTVEDLYKNL	<0.1
BsoBI D212V: BsoBI restriction enzyme with mutation D212V (protein, UniProt P70985 2-323, looked up, variant D212V) Type II restriction enzyme …: NTQKPFENHLKSVDDLKTTYEEYRAGFIAFALEKNKRSTPYIERARALKVAASVAKTPKDLLYLEDIQDALLYASGISDKAKKFLTEDDKKESINNLIENFLEPAGEEFIDELIFRYLLFQGDSLGGTMRNIAGALAQQKLTRAIISALDIANIPYKWLDSRDKKYTNWMDKPEDDYELETFAKGISWTINGKHRTLMYNITVPLVKKNVVICLFNCEPEIYTPQKVHQQPEKYLLLGELKGGIDPAGADEHWKTANTALTRIRNKFSEKGLSPKTIFIGAAIEHSMAEEIWDQLQSGSLTNSANLTKTEQVGSLCRWIINI	<0.1
BsoBI D246G: BsoBI restriction enzyme with mutation D246G (protein, UniProt P70985 2-323, looked up, variant D246G) Type II restriction enzyme …: NTQKPFENHLKSVDDLKTTYEEYRAGFIAFALEKNKRSTPYIERARALKVAASVAKTPKDLLYLEDIQDALLYASGISDKAKKFLTEDDKKESINNLIENFLEPAGEEFIDELIFRYLLFQGDSLGGTMRNIAGALAQQKLTRAIISALDIANIPYKWLDSRDKKYTNWMDKPEDDYELETFAKGISWTINGKHRTLMYNITVPLVKKNVDICLFNCEPEIYTPQKVHQQPEKYLLLGELKGGIGPAGADEHWKTANTALTRIRNKFSEKGLSPKTIFIGAAIEHSMAEEIWDQLQSGSLTNSANLTKTEQVGSLCRWIINI	<0.1
BsoBI E252K: BsoBI restriction enzyme with mutation E252K (protein, UniProt P70985 2-323, looked up, variant E252K) Type II restriction enzyme …: NTQKPFENHLKSVDDLKTTYEEYRAGFIAFALEKNKRSTPYIERARALKVAASVAKTPKDLLYLEDIQDALLYASGISDKAKKFLTEDDKKESINNLIENFLEPAGEEFIDELIFRYLLFQGDSLGGTMRNIAGALAQQKLTRAIISALDIANIPYKWLDSRDKKYTNWMDKPEDDYELETFAKGISWTINGKHRTLMYNITVPLVKKNVDICLFNCEPEIYTPQKVHQQPEKYLLLGELKGGIDPAGADKHWKTANTALTRIRNKFSEKGLSPKTIFIGAAIEHSMAEEIWDQLQSGSLTNSANLTKTEQVGSLCRWIINI	<0.1
